Test results published in US20210299212A1, “BINDNG MOLECULES TO TUMOR ASSOCIATED MACROPHAGES AND METHODS OF USE” (Sanford Burnham Prebys Medical Discovery Institute, priority 2018, published 2021).

Tests used:
[1] = tested on: cells isolated from tumors, spleen, liver, and blood from the 4T1 tumor mice; assay: Ex vivo binding to cells isolated from organs of 4T1 mice, flow cytometry; assay type: cell-based, mouse; details: 4T1 model, 4° C., 1 h
Experimental: Mice with tumor size about 8 mm were euthanized under deep anesthesia (Avertin, lack of response to a toe pinch) by cervical dislocation. Target (tumor) and control (e.g., liver, spleen) tissues were collected and further dissociated to single cells. Tumor cells were dissociated using MACS tumor dissociation kit. Cells were then incubated with fluorescent-labeled CRV or other cell markers (CD11b, CD68, F4/80, FAB, EpCAM, CD31) at 4° C. for 1 h. Positive cells were quantified on BD LSRFORTESSA and data were analyzed using FCS Express Version 3 (De Novo Software).

[2] = molecular target: Bovine serum albumin (Bos taurus, UniProt P02769); assay: Binding of FAM-peptide to control protein immobilized on a plate; details: 1 μM, room temperature, 1 h, fluorescence
Sequence of Bovine serum albumin (P02769 25-607): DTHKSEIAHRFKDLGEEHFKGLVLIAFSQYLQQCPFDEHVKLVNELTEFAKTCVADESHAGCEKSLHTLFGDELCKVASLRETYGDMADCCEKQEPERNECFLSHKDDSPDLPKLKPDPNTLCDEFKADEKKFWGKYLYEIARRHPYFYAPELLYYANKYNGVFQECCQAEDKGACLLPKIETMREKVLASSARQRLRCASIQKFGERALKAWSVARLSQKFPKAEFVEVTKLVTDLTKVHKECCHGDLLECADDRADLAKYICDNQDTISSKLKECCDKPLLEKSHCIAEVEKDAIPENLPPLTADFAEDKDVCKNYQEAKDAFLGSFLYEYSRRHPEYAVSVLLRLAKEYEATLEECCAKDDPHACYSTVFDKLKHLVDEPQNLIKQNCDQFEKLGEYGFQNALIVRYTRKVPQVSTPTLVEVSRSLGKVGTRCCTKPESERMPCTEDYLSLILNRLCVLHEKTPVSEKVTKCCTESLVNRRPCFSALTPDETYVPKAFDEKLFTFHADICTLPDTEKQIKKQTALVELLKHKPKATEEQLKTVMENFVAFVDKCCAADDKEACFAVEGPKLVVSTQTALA
Experimental: (§1) To confirm RXRB binds CRV, the binding of FAM-CRV to human recombinant RXRB protein immobilized on a plate was tested. Human RXRB recombinant protein (50 μL, 5 μg/mL) was immobilized in high binding 96-well plate at 4° C. overnight. Bovine serum albumin was used as the control protein. The protein solution was removed and washed one time with PBS. 1% BSA in PBS solution was then added to the wells and incubated at room temperature for 1 h to block the rest available binding sites. After one wash with PBS, RXRB and BSA were incubated with FAM-CRV (100 μL, 1 μM) at room temperature for 1 h. The wells were washed three times with PBS and the fluorescence was measured using a multiplate reader.

[3] = tested on: 4T1 tumors; assay: Immunofluorescence staining of tissues for FAM-peptide and CD31 at different homing time points; assay type: in vivo, mouse; details: 4T1 orthotopic tumor-bearing mice, i.v.
Experimental: FAM-CRV was intravenously injected into tumor bearing mice. To this end, 4T1 […] breast cancer cells were cultured in Dulbecco's modified Eagle's medium supplemented with 10% fetal bovine serum, 100 U/mL penicillin and 100 μg/mL streptomycin. The […] cell line was authenticated by the DNA Analysis Core Facility at the Sanford Burnham Prebys Medical Discovery Institute (La Jolla, Calif.) and tested negative for mycoplasma contamination. To produce 4T1 tumors, 1×10^6 tumor cells (suspended in 100 μL of PBS) were orthotopically injected into the mammary fat pad of normal BALB/c mice. All animal experimentation received approval from the Animal Research Committee of Sanford Burnham Prebys Medical Discovery Institute. Biodistribution of fluorescein-conjugated peptides (FAM-CRV, FAM-GGS, or FAM-ARA) was examined after intravenous injection of 100 μL peptide solution (1 mg/mL PBS) into the tail vein of a mouse. […] Tissues were collected, fixed with 4% formaldehyde buffer solution and then soaked in 30% sucrose in PBS overnight. Tissues were finally frozen in OCT embedding medium (Tissue-Tek), and sliced for immunofluorescence staining. Tissue sections were blocked in 1% bovine serum albumin with 0.1% Triton X-100 for 1 h, and incubated with appropriate primary antibodies and second antibodies. […]

[4] = molecular target: T1, human recombinant RXRB protein (Homo sapiens, UniProt P28702); assay: Binding of FAM-peptide to protein immobilized on a plate; details: 1 μM, room temperature, 1 h, fluorescence
T1 sequence (P28702 1-533): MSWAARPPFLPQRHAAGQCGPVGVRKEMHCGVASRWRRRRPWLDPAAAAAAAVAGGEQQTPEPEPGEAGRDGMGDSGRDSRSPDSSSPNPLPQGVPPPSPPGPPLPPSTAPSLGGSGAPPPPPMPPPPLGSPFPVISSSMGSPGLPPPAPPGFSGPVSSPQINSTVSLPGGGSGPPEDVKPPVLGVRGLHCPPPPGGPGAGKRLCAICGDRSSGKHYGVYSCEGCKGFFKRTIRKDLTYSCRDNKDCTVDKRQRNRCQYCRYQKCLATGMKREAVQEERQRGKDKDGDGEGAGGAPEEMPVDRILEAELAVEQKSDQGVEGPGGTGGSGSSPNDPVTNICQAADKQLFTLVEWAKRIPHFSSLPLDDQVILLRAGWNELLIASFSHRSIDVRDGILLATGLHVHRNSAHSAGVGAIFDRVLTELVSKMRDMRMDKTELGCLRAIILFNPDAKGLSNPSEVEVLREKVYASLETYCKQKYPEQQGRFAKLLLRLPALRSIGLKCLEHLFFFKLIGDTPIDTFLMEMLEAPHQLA
Experimental: as §1

GGSGGSKG [FAM-GGS, FAM-labeled control peptide]
specific labelling of macrophages in the tumor (ex vivo) [1]: could not specifically label macrophages | binding to control protein BSA [2]: neither peptide bound | fluorescence signal in the tumors at homing time points 5, 15, and 60 min [3]: no fluorescence signals

CRVLRSGSC [cyclic macrophage-targeting peptide]
binding to control protein BSA [2]: neither peptide bound | binding to immobilized RXRB compared to control peptide FAM-GGS [4]: significantly higher binding
